Test results taken from PMC9482650, “Quantitative fragmentomics allow affinity mapping of interactomes” (Nature Communications, 2022).

target: DLG2_2, Q15700; experiment: holdup assay; set-up: key: below the threshold = too weak to quantify, mostly under pKd 3.1 to 4; details: plain residues with an end cap or a label only (N-terminal biotin on a linker: ado-ado)
Sequence (Q15700 189-283): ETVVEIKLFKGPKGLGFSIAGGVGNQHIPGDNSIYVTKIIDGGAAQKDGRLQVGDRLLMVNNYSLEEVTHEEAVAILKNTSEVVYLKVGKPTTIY

Row | Binder | pKd
1 | THREVKFTSL [CD46, P15529] | 3.57
2 | PSDSVGKDVF [EGLN1, Q9GZT9] | below the threshold

target: T1, SNTG2, Q9NY99; experiment: holdup assay; set-up: key: below the threshold = too weak to quantify, mostly under pKd 3.1 to 4; details: plain residues with an end cap or a label only (N-terminal biotin on a linker: ado-ado)
T1 sequence (Q9NY99 68-166, limits assumed, looked up): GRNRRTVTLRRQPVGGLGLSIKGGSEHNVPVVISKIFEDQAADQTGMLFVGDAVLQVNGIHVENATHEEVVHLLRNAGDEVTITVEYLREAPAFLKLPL

Row | Binder | pKd
3 | THREVKFTSL [CD46, P15529] | 4.05
4 | PSDSVGKDVF [EGLN1, Q9GZT9] | below the threshold

target: SCRIB_2, Q14160; experiment: holdup assay; set-up: key: below the threshold = too weak to quantify, mostly under pKd 3.1 to 4; details: plain residues with an end cap or a label only (N-terminal biotin on a linker: ado-ado)
Sequence (Q14160 857-960): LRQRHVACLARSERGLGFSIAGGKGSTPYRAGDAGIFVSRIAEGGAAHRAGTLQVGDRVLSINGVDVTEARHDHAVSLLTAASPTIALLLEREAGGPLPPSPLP

Row | Binder | pKd
5 | THREVKFTSL [CD46, P15529] | 3.67
6 | PSDSVGKDVF [EGLN1, Q9GZT9] | below the threshold

target: DLG1_3, Q12959; experiment: holdup assay; set-up: key: below the threshold = too weak to quantify, mostly under pKd 3.1 to 4; details: plain residues with an end cap or a label only (N-terminal biotin on a linker: ado-ado)
Sequence (Q12959 457-571): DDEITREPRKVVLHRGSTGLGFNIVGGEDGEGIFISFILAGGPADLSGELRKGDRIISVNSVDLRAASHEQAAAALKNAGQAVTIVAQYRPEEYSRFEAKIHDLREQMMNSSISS

Row | Binder | pKd
7 | THREVKFTSL [CD46, P15529] | 3.75
8 | PSDSVGKDVF [EGLN1, Q9GZT9] | below the threshold

target: T2, TIAM2, Q8IVF5; experiment: holdup assay; set-up: key: below the threshold = too weak to quantify, mostly under pKd 3.1 to 4; details: plain residues with an end cap or a label only (N-terminal biotin on a linker: ado-ado)
T2 sequence (Q8IVF5 885-986, limits assumed, looked up): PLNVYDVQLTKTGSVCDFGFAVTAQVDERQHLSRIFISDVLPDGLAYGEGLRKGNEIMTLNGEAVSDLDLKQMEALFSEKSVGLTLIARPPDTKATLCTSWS

Row | Binder | pKd
9 | THREVKFTSL [CD46, P15529] | 4.06
10 | PSDSVGKDVF [EGLN1, Q9GZT9] | 4.05

target: T3, APBA3_1, O96018; experiment: holdup assay; set-up: key: below the threshold = too weak to quantify, mostly under pKd 3.1 to 4; details: plain residues with an end cap or a label only (N-terminal biotin on a linker: ado-ado)
T3 sequence (O96018 389-490, limits assumed, looked up): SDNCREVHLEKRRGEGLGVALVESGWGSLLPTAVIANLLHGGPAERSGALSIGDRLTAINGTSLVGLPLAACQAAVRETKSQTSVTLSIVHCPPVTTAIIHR

Row | Binder | pKd
11 | THREVKFTSL [CD46, P15529] | below the threshold
12 | PSDSVGKDVF [EGLN1, Q9GZT9] | below the threshold

target: Inadl_6, Q8NI35; experiment: holdup assay; set-up: key: below the threshold = too weak to quantify, mostly under pKd 3.1 to 4; details: plain residues with an end cap or a label only (N-terminal biotin on a linker: ado-ado)
Sequence (Q8NI35 1058-1167): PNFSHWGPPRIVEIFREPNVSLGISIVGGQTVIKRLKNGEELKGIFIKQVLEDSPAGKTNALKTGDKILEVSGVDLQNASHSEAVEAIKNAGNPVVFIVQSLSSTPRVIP

Row | Binder | pKd
13 | THREVKFTSL [CD46, P15529] | 3.7
14 | PSDSVGKDVF [EGLN1, Q9GZT9] | below the threshold

target: T4, ARHGEF11, O15085; experiment: holdup assay; set-up: key: below the threshold = too weak to quantify, mostly under pKd 3.1 to 4; details: plain residues with an end cap or a label only (N-terminal biotin on a linker: ado-ado)
T4 sequence (O15085 42-136, limits assumed, looked up): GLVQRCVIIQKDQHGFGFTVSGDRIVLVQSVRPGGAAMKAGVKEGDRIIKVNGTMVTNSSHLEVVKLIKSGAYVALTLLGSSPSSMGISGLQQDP

Row | Binder | pKd
15 | THREVKFTSL [CD46, P15529] | 4.75
16 | PSDSVGKDVF [EGLN1, Q9GZT9] | below the threshold

target: LNX1_3, Q8TBB1; experiment: holdup assay; set-up: key: below the threshold = too weak to quantify, mostly under pKd 3.1 to 4; details: plain residues with an end cap or a label only (N-terminal biotin on a linker: ado-ado)
Sequence (Q8TBB1 500-596): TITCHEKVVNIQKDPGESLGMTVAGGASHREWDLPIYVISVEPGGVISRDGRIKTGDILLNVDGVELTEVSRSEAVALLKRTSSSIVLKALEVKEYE

Row | Binder | pKd
17 | THREVKFTSL [CD46, P15529] | below the threshold
18 | PSDSVGKDVF [EGLN1, Q9GZT9] | below the threshold

target: SNX27, Q96L92; experiment: holdup assay; set-up: key: below the threshold = too weak to quantify, mostly under pKd 3.1 to 4; details: plain residues with an end cap or a label only (N-terminal biotin on a linker: ado-ado)

Row | Binder | pKd
19 | THREVKFTSL [CD46, P15529] | 4.35
20 | PSDSVGKDVF [EGLN1, Q9GZT9] | below the threshold

target: T5, HTRA4, P83105; experiment: holdup assay; set-up: key: below the threshold = too weak to quantify, mostly under pKd 3.1 to 4; details: plain residues with an end cap or a label only (N-terminal biotin on a linker: ado-ado)
T5 sequence (P83105 378-476, limits assumed, looked up): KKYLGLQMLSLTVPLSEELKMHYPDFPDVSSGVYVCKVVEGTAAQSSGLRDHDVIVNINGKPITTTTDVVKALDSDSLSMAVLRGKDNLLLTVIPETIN

Row | Binder | pKd
21 | THREVKFTSL [CD46, P15529] | below the threshold
22 | PSDSVGKDVF [EGLN1, Q9GZT9] | below the threshold

target: LAP2, Q96RT1; experiment: holdup assay; set-up: key: below the threshold = too weak to quantify, mostly under pKd 3.1 to 4; details: plain residues with an end cap or a label only (N-terminal biotin on a linker: ado-ado)
Sequence (Q96RT1 other isoform, or with tags, fused parts or gaps): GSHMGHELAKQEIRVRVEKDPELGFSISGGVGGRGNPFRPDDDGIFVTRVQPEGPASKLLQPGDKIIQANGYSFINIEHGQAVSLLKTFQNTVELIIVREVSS

Row | Binder | pKd
23 | THREVKFTSL [CD46, P15529] | below the threshold
24 | PSDSVGKDVF [EGLN1, Q9GZT9] | below the threshold

target: T6, NHERF3_4, Q5T2W1; experiment: holdup assay; set-up: key: below the threshold = too weak to quantify, mostly under pKd 3.1 to 4; details: plain residues with an end cap or a label only (N-terminal biotin on a linker: ado-ado)
T6 sequence (Q5T2W1 373-468, limits assumed, looked up): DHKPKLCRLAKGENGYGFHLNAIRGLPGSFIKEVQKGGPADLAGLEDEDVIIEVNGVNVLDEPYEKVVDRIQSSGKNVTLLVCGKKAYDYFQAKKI

Row | Binder | pKd
25 | THREVKFTSL [CD46, P15529] | 4.6
26 | PSDSVGKDVF [EGLN1, Q9GZT9] | below the threshold

target: T7, LNX2_3, Q8N448; experiment: holdup assay; set-up: key: below the threshold = too weak to quantify, mostly under pKd 3.1 to 4; details: plain residues with an end cap or a label only (N-terminal biotin on a linker: ado-ado)
T7 sequence (Q8N448 463-564, limits assumed, looked up): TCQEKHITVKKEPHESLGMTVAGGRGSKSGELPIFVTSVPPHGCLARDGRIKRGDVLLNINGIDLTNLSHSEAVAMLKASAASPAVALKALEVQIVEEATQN

Row | Binder | pKd
27 | THREVKFTSL [CD46, P15529] | below the threshold
28 | PSDSVGKDVF [EGLN1, Q9GZT9] | below the threshold

target: TJP1_3, Q07157; experiment: holdup assay; set-up: key: below the threshold = too weak to quantify, mostly under pKd 3.1 to 4; details: plain residues with an end cap or a label only (N-terminal biotin on a linker: ado-ado)
Sequence (Q07157 416-512): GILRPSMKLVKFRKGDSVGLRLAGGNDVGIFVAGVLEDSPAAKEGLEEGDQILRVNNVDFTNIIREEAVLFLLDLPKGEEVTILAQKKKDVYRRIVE

Row | Binder | pKd
29 | THREVKFTSL [CD46, P15529] | below the threshold
30 | PSDSVGKDVF [EGLN1, Q9GZT9] | below the threshold

target: T8, PDZRN3_1, Q9UPQ7; experiment: holdup assay; set-up: key: below the threshold = too weak to quantify, mostly under pKd 3.1 to 4; details: plain residues with an end cap or a label only (N-terminal biotin on a linker: ado-ado)
T8 sequence (Q9UPQ7 244-349, limits assumed, looked up): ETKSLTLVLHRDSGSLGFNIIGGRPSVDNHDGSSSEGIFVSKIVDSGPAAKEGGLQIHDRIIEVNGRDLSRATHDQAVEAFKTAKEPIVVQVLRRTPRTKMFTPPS

Row | Binder | pKd
31 | THREVKFTSL [CD46, P15529] | 4.27
32 | PSDSVGKDVF [EGLN1, Q9GZT9] | below the threshold

target: AHNAK1, Q09666; experiment: holdup assay; set-up: key: below the threshold = too weak to quantify, mostly under pKd 3.1 to 4; details: plain residues with an end cap or a label only (N-terminal biotin on a linker: ado-ado)
Sequence (Q09666 4-100): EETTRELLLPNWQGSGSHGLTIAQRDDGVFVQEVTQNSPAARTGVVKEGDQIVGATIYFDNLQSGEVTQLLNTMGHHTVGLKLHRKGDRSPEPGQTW

Row | Binder | pKd
33 | THREVKFTSL [CD46, P15529] | below the threshold
34 | PSDSVGKDVF [EGLN1, Q9GZT9] | below the threshold

target: T9, SNTB1, Q13884; experiment: holdup assay; set-up: key: below the threshold = too weak to quantify, mostly under pKd 3.1 to 4; details: plain residues with an end cap or a label only (N-terminal biotin on a linker: ado-ado)
T9 sequence (Q13884 107-205, limits assumed, looked up): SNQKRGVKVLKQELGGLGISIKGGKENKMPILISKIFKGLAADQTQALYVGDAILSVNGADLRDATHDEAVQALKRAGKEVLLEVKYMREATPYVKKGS

Row | Binder | pKd
35 | THREVKFTSL [CD46, P15529] | 4.86
36 | PSDSVGKDVF [EGLN1, Q9GZT9] | below the threshold

target: LNX1_2, Q8TBB1; experiment: holdup assay; set-up: key: below the threshold = too weak to quantify, mostly under pKd 3.1 to 4; details: plain residues with an end cap or a label only (N-terminal biotin on a linker: ado-ado)
Sequence (Q8TBB1 371-470): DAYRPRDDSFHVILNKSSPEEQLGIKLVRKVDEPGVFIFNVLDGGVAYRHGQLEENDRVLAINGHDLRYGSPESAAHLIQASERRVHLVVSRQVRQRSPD

Row | Binder | pKd
37 | THREVKFTSL [CD46, P15529] | below the threshold
38 | PSDSVGKDVF [EGLN1, Q9GZT9] | below the threshold

target: FRMPD2_2, Q68DX3; experiment: holdup assay; set-up: key: below the threshold = too weak to quantify, mostly under pKd 3.1 to 4; details: plain residues with an end cap or a label only (N-terminal biotin on a linker: ado-ado)
Sequence (Q68DX3 944-1038): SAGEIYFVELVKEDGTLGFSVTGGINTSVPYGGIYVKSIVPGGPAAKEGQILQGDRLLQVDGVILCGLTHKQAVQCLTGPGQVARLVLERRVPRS

Row | Binder | pKd
39 | THREVKFTSL [CD46, P15529] | below the threshold
40 | PSDSVGKDVF [EGLN1, Q9GZT9] | below the threshold

target: MAGI2_4, Q86UL8; experiment: holdup assay; set-up: key: below the threshold = too weak to quantify, mostly under pKd 3.1 to 4; details: plain residues with an end cap or a label only (N-terminal biotin on a linker: ado-ado)
Sequence (Q86UL8 772-865): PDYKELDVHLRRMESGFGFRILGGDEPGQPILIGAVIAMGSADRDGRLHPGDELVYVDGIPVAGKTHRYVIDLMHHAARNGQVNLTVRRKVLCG

Row | Binder | pKd
41 | THREVKFTSL [CD46, P15529] | below the threshold
42 | PSDSVGKDVF [EGLN1, Q9GZT9] | below the threshold

target: T10, PDZD2_2, O15018; experiment: holdup assay; set-up: key: below the threshold = too weak to quantify, mostly under pKd 3.1 to 4; details: plain residues with an end cap or a label only (N-terminal biotin on a linker: ado-ado)
T10 sequence (O15018 329-429, limits assumed, looked up): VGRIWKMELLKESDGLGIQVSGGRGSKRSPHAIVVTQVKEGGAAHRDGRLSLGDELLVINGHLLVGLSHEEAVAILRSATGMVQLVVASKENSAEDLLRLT

Row | Binder | pKd
43 | THREVKFTSL [CD46, P15529] | 4.26
44 | PSDSVGKDVF [EGLN1, Q9GZT9] | 3.62

target: IL16_4, Q14005; experiment: holdup assay; set-up: key: below the threshold = too weak to quantify, mostly under pKd 3.1 to 4; details: plain residues with an end cap or a label only (N-terminal biotin on a linker: ado-ado)
Sequence (Q14005 1229-1329): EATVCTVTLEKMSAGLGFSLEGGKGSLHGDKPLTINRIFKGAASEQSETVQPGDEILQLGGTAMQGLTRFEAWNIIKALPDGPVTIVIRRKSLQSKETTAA

Row | Binder | pKd
45 | THREVKFTSL [CD46, P15529] | 3.88
46 | PSDSVGKDVF [EGLN1, Q9GZT9] | 3.63

target: Inadl_3, Q8NI35; experiment: holdup assay; set-up: key: below the threshold = too weak to quantify, mostly under pKd 3.1 to 4; details: plain residues with an end cap or a label only (N-terminal biotin on a linker: ado-ado)
Sequence (Q8NI35 359-469): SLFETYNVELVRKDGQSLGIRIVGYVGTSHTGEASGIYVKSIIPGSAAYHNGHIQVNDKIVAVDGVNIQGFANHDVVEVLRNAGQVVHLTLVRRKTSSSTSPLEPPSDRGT

Row | Binder | pKd
47 | THREVKFTSL [CD46, P15529] | below the threshold
48 | PSDSVGKDVF [EGLN1, Q9GZT9] | below the threshold

target: T11, LIN7C, Q9NUP9; experiment: holdup assay; set-up: key: below the threshold = too weak to quantify, mostly under pKd 3.1 to 4; details: plain residues with an end cap or a label only (N-terminal biotin on a linker: ado-ado)
T11 sequence (Q9NUP9 88-185, limits assumed, looked up): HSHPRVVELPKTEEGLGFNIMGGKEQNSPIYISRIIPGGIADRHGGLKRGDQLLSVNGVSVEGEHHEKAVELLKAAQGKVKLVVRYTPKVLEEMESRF

Row | Binder | pKd
49 | THREVKFTSL [CD46, P15529] | below the threshold
50 | PSDSVGKDVF [EGLN1, Q9GZT9] | below the threshold

target: T12, GRIP1_4, Q9Y3R0; experiment: holdup assay; set-up: key: below the threshold = too weak to quantify, mostly under pKd 3.1 to 4; details: plain residues with an end cap or a label only (N-terminal biotin on a linker: ado-ado)
T12 sequence (Q9Y3R0 467-571, limits assumed, looked up): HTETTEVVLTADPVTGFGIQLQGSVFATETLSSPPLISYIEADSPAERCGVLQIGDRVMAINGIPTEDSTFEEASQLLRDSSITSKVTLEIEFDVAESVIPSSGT

Row | Binder | pKd
51 | THREVKFTSL [CD46, P15529] | below the threshold
52 | PSDSVGKDVF [EGLN1, Q9GZT9] | below the threshold
